Assay results published in article PMC4981310 (PLoS Pathogens, 2016).

System: Nc1ncnc2c1ncn2[C@@H]1O[C@H](COP(=O)(O)OP(=O)(O)O[C@H]2O[C@H](CO)[C@@H](O)[C@H](O)[C@H]2O)[C@@H](O)[C@H]1O
Test: purified protein
Settings: Mg2+ (stimulates kcat) compulsory-order ternary-complex mechanism; ADP-glucose binds before glucose 1-phosphate

## GlgA (Mycobacterium tuberculosis H37Rv)
  Km: 46 ± 4 µM
  Vmax: 21.4 µmol/min/mg
  kcat: 15.4 ± 0.3 s⁻¹
